From patent publication US20180371095A1

Molecular target: recombinant human VSIG4 (rhVSIG4), construct not stated (human) (UniProt Q9Y279)
Experiment: ELISA, soluble rhVSIG4 coated, streptavidin-HRP detection, background corrected

- absorbance at 452 nm: 2.3 absorbance
Substance: biotinylated rhSIGLEC-7 (from UniProt Q9Y286 19-357) (ligand)
